Data taken from patent publication US20260265409A1 (NANJING LEADS BIOLABS, published 2026).

What was measured:
[1] = target: T1, recombinant human FAP protein (Sino Biological, Cat #10464-H07H) (human, UniProt Q12884 26-760); assay: ELISA, human FAP protein coated on the plate, detection with HRP goat anti-human IgG F(ab')2; unit from the axis 'Antibody Conc[nM]' and paragraph 217
T1 construct: Bought protein
T1 sequence: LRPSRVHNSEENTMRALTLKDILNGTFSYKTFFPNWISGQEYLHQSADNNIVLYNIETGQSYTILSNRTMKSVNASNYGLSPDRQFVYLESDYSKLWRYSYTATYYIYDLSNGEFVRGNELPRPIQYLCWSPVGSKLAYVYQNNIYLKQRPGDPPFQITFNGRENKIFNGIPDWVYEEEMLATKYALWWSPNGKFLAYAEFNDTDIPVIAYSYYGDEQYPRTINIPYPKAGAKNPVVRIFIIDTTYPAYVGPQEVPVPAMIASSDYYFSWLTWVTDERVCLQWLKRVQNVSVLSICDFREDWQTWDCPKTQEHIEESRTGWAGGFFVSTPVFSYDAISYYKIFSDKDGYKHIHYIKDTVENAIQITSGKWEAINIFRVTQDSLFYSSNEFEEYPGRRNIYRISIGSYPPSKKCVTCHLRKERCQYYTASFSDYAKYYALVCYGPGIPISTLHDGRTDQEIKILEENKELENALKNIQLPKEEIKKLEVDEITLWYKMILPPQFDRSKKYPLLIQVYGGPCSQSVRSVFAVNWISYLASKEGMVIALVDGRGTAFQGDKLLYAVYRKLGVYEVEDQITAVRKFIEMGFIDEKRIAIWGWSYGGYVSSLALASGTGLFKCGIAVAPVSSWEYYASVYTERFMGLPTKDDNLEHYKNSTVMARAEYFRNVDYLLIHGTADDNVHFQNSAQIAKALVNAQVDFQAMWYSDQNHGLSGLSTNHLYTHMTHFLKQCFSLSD
Procedure: Human FAP protein (Sino Biological, Cat #10464-H07H) was immobilized on a 96-well plate by incubation overnight in a PBS buffer at 4° C. The plate was then blocked by incubation with a PBS containing 1% of BSA for 1 h at 37° C. After blocking, the plate was washed thrice with PBST (PBS containing 0.05% of Tween 20). […] After binding, the plate was washed thrice with PBST, incubated at 37° C. for 1 h with peroxidase-labeled goat anti-human IgG, F(ab′)₂ fragment specific (Jackson Immuno Research, Cat #109-035-097) diluted at 1/15,000 in the binding buffer, washed again, subjected to a chromogenic reaction with TMB, and quenched with 1 M H₂SO₄.

[2] = target: T2, human FAP protein expressed on 293T cells (293T-human FAP) (human, UniProt Q12884 1-760); assay: flow cytometry on 293T-human FAP cells, PE goat anti-human IgG Fc secondary antibody
T2 sequence: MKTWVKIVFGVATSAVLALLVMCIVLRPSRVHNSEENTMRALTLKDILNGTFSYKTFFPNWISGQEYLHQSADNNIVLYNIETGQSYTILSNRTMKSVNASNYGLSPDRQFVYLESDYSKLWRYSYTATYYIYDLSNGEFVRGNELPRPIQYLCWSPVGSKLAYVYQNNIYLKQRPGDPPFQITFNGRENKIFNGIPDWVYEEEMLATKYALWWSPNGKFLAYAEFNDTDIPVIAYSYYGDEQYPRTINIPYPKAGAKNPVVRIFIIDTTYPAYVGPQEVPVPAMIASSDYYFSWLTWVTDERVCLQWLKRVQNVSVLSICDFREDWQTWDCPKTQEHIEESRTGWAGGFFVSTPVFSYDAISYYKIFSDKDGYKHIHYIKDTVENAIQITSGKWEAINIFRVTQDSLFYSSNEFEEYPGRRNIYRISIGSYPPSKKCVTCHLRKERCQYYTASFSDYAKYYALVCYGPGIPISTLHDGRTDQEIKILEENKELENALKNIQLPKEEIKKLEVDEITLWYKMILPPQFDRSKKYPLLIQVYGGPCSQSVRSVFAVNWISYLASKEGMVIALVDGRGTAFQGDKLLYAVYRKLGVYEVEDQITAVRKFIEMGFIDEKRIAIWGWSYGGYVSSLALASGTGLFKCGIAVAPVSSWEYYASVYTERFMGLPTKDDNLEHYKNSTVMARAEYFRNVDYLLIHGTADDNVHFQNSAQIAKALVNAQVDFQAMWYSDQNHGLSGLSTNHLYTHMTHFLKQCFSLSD
Procedure: (§1) The cells were washed twice with PBS, and then fluorescent secondary antibody R-PE-conjugated AffiniPure Goat Anti-Human IgG, Fcγ Fragment Specific (Jackson Immuno Research, Cat #109-116-098) was added. The cells were incubated at 4° C. for 30 min. The cells were washed twice with PBS and then resuspended, and finally, fluorescence signals were detected using the […] (BD Bioscience) flow cytometer.

[3] = target: T3, cynomolgus FAP protein expressed on 293T cells (293T-cynomolgus FAP) (cynomolgus monkey, UniProt Q12884 1-760 (human entry)); assay: flow cytometry on 293T-cynomolgus FAP cells, PE goat anti-human IgG Fc secondary antibody
T3 sequence: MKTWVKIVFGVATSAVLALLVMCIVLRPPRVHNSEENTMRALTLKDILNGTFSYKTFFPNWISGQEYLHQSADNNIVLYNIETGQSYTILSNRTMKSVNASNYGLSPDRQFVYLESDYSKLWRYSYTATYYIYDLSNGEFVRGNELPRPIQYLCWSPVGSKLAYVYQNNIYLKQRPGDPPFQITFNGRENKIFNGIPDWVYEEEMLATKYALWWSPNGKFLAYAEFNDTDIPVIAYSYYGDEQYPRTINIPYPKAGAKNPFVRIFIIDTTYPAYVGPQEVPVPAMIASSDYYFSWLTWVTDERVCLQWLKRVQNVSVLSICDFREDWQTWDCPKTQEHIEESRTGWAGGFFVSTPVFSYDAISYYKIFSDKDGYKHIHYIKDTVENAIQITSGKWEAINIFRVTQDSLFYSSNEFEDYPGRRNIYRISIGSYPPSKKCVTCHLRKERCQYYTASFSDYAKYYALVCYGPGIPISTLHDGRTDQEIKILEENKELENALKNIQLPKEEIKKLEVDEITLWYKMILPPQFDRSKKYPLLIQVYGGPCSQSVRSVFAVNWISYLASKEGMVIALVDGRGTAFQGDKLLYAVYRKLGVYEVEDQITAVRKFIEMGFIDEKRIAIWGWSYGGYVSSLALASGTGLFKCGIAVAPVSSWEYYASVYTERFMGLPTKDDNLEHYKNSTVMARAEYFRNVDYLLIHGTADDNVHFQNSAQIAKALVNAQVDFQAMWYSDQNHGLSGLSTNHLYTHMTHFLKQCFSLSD
Procedure: as §1

[4] = target: T4, human DPP4 protein expressed on 293T cells (293T-DPP4) (human, UniProt P27487 1-766); assay: flow cytometry on 293T-DPP4 cells, PE goat anti-human IgG Fc secondary antibody
T4 construct: also called CD26
Procedure: as §1, with “cytometer. […] The antibodies were diluted at 1:100 with PBS, and the cell pellet was resuspended and incubated at 4° C. for 30 min. The cells were washed twice with PBS and then resuspended in 100 μL of PBS, and finally, fluorescence signals were detected using the BD Accuri C5 (BD Bioscience) flow cytometer.” for “cytometer.”

[5] = target: T2, human FAP protein expressed on 293T …; assay: flow cytometry on 293T-human FAP cells (panel title on the sheet), PE goat anti-human IgG Fc secondary antibody
Procedure: as §1

[6] = target: T3, cynomolgus FAP protein expressed on …; assay: flow cytometry on 293T-cynomolgus FAP cells (panel title on the sheet), PE goat anti-human IgG Fc secondary antibody
Procedure: as §1

T4 sequence (P27487 whole entry): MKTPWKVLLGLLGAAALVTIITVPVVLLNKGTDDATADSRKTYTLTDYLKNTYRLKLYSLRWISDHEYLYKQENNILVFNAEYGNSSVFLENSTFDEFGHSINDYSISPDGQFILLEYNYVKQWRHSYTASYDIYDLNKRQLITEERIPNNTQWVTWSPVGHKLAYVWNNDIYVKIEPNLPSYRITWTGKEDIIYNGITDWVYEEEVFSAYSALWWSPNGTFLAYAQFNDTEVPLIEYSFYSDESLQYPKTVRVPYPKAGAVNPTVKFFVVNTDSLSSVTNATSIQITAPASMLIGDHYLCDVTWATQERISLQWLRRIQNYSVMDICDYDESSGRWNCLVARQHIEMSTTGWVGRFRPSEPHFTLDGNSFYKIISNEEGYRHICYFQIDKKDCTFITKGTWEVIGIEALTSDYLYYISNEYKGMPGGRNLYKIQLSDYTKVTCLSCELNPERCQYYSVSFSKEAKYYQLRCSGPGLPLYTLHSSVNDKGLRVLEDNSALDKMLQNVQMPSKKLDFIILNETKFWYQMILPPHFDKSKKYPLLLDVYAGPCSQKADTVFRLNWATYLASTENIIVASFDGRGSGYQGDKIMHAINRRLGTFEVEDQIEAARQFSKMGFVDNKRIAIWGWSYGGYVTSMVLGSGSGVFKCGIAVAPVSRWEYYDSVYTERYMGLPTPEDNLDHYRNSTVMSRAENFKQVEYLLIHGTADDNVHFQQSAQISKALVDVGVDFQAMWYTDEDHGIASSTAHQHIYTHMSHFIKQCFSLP

B1: sibrotuzumab (humanized reference antibody) (antibody, human IgG1, kappa, V domains shown)
VH: QVQLVQSGAEVKKPGASVKVSCKTSRYTFTEYTIHWVRQAPGQRLEWIGGINPNNGIPNYNQKFKGRVTITVDTSASTAYMELSSLRSEDTAVYYCARRRIAYGYDEGHAMDYWGQGTLVTVSS
VL: DIVMTQSPDSLAVSLGERATINCKSSQSLLYSRNQKNYLAWYQQKPGQPPKLLIFWASTRESGVPDRFSGSGFGTDFTLTISSLQAEDVAVYYCQQYFSYPLTFGQGTKVEIKR
[1]
  EC50: 0.0863 nM
[2]
  EC50 (read off the curve): ~2 nM
[3]
  EC50 (read off the curve): ~1 nM
[4]
  binding result: no binding (tested: 10 µg/mL)

B2: humanized anti-FAP antibody huF19-LG (antibody, human IgG1, kappa, V domains shown)
VH: QVQLVQSGAEVKKPGASVKVSCKASGYTFTEYTIHWVRQATGQGLEWIGGINPNNGIPNYNQKFKGRATMTVGTSISTAYMELSSLRSEDTAVYFCARRRIAYGYDEGHAMDYWGQGTLVTVSS
VL: DIQMTQSPSSLSASVGDRVTITCKSSQSLLYSRNQKNYLAWFQQKPGKAPKLLIFWASTRESGVPSRFTGSGFGTDFTLTISSLQPEDFATYYCQQYFSYPLTFGQGTKLEIKR
notes: Humanized from murine F19
[1]
  EC50: 0.0926 nM
[5]
  EC50 (read off the curve): ~3 nM
[2]
  EC50 (read off the curve): ~2 nM
[3]
  EC50 (read off the curve): 1 to 2 nM
[4]
  binding result: no binding (tested: 10 µg/mL)
[6]
  EC50 (read off the curve): ~4 nM

B3: mutant humanized FAP antibody huF19-LG-NGR (antibody, human IgG1, kappa, V domains shown)
VH: QVQLVQSGAEVKKPGASVKVSCKASGYTFTEYTIHWVRQATGQGLEWIGGINPNNRIPNYNQKFKGRATMTVGTSISTAYMELSSLRSEDTAVYFCARRRIAYGYDEGHAMDYWGQGTLVTVSS
VL: DIQMTQSPSSLSASVGDRVTITCKSSQSLLYSRNQKNYLAWFQQKPGKAPKLLIFWASTRESGVPSRFTGSGFGTDFTLTISSLQPEDFATYYCQQYFSYPLTFGQGTKLEIKR
notes: huF19-LG with G56R (Kabat) in HCDR2; also called optimized FAP antibody; mutant antibody
[5]
  EC50 (read off the curve): ~2 nM
[6]
  EC50 (read off the curve): ~3 nM
